The test deals with ACE2 on ACE2-transfected HEK293 cells (UniProt Q9BYF1). Put plainly: flow cytometry on cells. On the technique in general: Flow cytometry measures light scatter and fluorescence of single cells or particles in a stream.

These results are taken from PMC8229176.

Usually EC50 stands for the concentration that produces a half-maximal response. A low value points to higher potency in that assay.

Sequence of UniProt Q9BYF1 (Q9BYF1 18-805): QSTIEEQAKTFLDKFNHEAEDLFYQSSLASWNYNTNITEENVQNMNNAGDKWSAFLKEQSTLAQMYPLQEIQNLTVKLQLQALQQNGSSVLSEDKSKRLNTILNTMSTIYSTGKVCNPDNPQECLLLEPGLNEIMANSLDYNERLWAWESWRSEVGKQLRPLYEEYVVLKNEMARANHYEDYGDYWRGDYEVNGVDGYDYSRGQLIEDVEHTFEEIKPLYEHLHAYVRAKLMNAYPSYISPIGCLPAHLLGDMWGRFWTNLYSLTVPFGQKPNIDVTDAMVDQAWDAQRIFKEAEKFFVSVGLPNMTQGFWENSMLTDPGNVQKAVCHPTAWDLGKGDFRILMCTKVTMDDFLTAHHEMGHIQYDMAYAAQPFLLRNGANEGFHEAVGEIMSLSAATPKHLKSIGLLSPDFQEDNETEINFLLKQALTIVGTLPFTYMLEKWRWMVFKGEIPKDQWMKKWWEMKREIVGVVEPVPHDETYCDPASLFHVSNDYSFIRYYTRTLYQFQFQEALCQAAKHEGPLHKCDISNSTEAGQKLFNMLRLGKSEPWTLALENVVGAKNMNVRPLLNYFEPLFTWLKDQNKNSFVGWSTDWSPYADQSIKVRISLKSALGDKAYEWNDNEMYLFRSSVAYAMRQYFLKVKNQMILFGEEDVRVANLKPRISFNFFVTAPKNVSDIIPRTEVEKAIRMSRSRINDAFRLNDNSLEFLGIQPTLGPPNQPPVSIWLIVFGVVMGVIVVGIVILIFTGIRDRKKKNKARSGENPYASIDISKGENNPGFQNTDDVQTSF

In turn, “SARS-CoV-2 spike protein receptor-binding domain (RBD), His6-tagged (domain or fragment)” yielded an EC50 of 0.0491 µM.
